Data: patent US20220291215A1
Read-outs that look alike come from different tables or passages of the source.

Columns and labels:
[1] = target: memory CD4+ T cells from DR1+ donors, unstimulated (a small subset; their TCRs)
[2] = target: memory CD4+ T cells from DR1+ donors, unstimulated (a small subset; their TCRs); remark: listed apart in the source
[3] = target: memory CD4+ T cells from DR1+ donors, unstimulated (a small subset; their TCRs); remark: listed apart in the source
[4] = target: memory CD4+ T cells from DR1+ donors, unstimulated (a small subset; their TCRs); remark: listed apart in the source
[5] = target: memory CD4+ T cells from DR1+ donors, unstimulated (a small subset; their TCRs); remark: listed apart in the source
Transduced TCR: None [6] = target: Transduced TCR: None
[7] = target: memory CD4+ T cells from DR1+ donors, unstimulated (a small subset; their TCRs); remark: listed apart in the source
[8] = target: memory CD4+ T cells from DR1+ donors, unstimulated (a small subset; their TCRs); remark: listed apart in the source
DR1-restricted TCR HA1.7 [9] = target: DR1-restricted TCR HA1.7
DR1-restricted TCR HA1.7 [10] = target: DR1-restricted TCR HA1.7; remark: listed apart in the source
Transduced TCR: None [11] = target: Transduced TCR: None; remark: listed apart in the source
[12] = target: memory CD4+ T cells from DR1+ donors, unstimulated (a small subset; their TCRs); remark: listed apart in the source
DR1-restricted TCR HA1.7 [13] = assay: flow cytometry, TCR-transduced primary T cells
[14] = target: memory CD4+ T cells from DR1+ donors, unstimulated (a small subset; their TCRs); remark: listed apart in the source
Transduced TCR: None [15] = target: Transduced TCR: None; remark: listed apart in the source
DR1-restricted TCR HA1.7 [16] = target: DR1-restricted TCR HA1.7; remark: listed apart in the source
Transduced TCR: None [17] = target: Transduced TCR: None; remark: listed apart in the source
DR1-restricted TCR HA1.7 [18] = target: DR1-restricted TCR HA1.7; remark: listed apart in the source

Substance: Flu-HA268-287, DR1^L114W/V143M+2reps dimer (PE) (peptide-MHC)
- events in the dimer+ CD4+ gate [1]: 2 evts
- events in the dimer+ CD4+ gate [2]: 0 evts

Substance: Flu-HA232-251, DR1^L114W/V143M+2reps dimer (PE) (peptide-MHC)
- events in the dimer+ CD4+ gate [3]: 0 evts

Substance: DR1^L114W/V143M+2reps dimer loaded with Flu-HA117-136 (peptide-MHC)
- events in the dimer+ CD4+ gate [4]: 74 evts
- events in the dimer+ CD4+ gate [5]: 10 evts

Substance: wild-type DR1 dimer loaded with Flu-HA306-318 (from UniProt P01911 30-227) (peptide-MHC)
- percent multimer-positive CD4+ cells (number at the gate) (Transduced TCR: None [6]): 0.1%

Substance: Flu-HA5-24, DR1^L114W/V143M+2reps dimer (PE) (peptide-MHC)
- events in the dimer+ CD4+ gate [7]: 2 evts
- events in the dimer+ CD4+ gate [8]: 1 evts

Substance: DR1^L114W/V143M+2reps dimer loaded with Flu-HA306-318 (peptide-MHC)
- percent multimer-positive CD4+ cells (number at the gate) (DR1-restricted TCR HA1.7 [9]): 48.9%
- percent multimer-positive CD4+ cells (number at the gate) (DR1-restricted TCR HA1.7 [10]): 53%
- percent multimer-positive CD4+ cells (number at the gate) (Transduced TCR: None [11]): 0%
- events in the dimer+ CD4+ gate [12]: 53 evts
- % dimer+ CD4+ cells (DR1-restricted TCR HA1.7 [13]): 9.1%
- events in the dimer+ CD4+ gate [14]: 18 evts

Substance: DR1^L114W/V143M dimer loaded with Flu-HA306-318 (peptide-MHC)
- percent multimer-positive CD4+ cells (number at the gate) (Transduced TCR: None [15]): 0%
- percent multimer-positive CD4+ cells (number at the gate) (DR1-restricted TCR HA1.7 [16]): 1.5%

Substance: DR1^L114W/V143M+6reps dimer loaded with Flu-HA306-318 (peptide-MHC)
- percent multimer-positive CD4+ cells (number at the gate) (Transduced TCR: None [17]): 0.1%
- percent multimer-positive CD4+ cells (number at the gate) (DR1-restricted TCR HA1.7 [18]): 48.2%
